# Assay results as given in paper PMC5453625.
# How the values were obtained:
# [1] = target: swine nectin-1 ectodomain (amino acids 30-335) (swine) (UniProt Q9GL76); test: SPR; BIAcore 3000, CM5 chip; […]) immobilised; […]; 25 C; HBS-EP (10 mM HEPES pH 7.4, 150 mM NaCl, 3 mM EDTA, 0.005% Tween 20); […]
# [2] = target: human nectin-1 ectodomain (amino acids 30-335) (human) (UniProt Q15223); test: as above
# Sequence of UniProt Q15223 (Q15223 30-335): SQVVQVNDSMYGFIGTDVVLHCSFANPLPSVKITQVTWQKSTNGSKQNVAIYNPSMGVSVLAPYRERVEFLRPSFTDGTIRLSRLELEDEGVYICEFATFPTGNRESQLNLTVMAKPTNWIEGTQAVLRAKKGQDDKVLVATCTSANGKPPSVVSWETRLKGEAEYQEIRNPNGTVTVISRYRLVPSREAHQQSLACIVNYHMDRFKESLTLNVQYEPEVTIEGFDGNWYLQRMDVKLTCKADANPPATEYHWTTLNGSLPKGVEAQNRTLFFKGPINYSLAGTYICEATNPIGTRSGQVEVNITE
# Sequence of UniProt Q9GL76 (Q9GL76 30-335): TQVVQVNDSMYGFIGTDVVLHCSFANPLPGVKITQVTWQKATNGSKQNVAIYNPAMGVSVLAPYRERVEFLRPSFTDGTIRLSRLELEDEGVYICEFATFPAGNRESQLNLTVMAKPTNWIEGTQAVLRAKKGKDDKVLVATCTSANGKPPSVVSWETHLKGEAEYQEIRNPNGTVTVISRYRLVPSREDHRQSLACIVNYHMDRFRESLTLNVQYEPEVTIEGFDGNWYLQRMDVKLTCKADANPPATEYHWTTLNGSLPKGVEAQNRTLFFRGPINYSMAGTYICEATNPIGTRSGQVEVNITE
substance,measurement,setting,value
"PRV gD284 (pseudorabies virus glycoprotein D, residues 1-284, lacking the membrane-proximal loop) (domain or fragment)",Kd,[1],18.4 nM
same,koff,[1],0.0211 s⁻¹
same,kon,[1],1.15e+06 M⁻¹ s⁻¹
same,Kd,[2],16.1 nM
same,koff,[2],0.0117 s⁻¹
same,kon,[2],725000 M⁻¹ s⁻¹
